For one molecule, decrease of EphA2 Ser897 phosphorylation, Western blot, HEK293T, 6 uM YSA and suppression of migration of transfected HEK293T cells, transwell assay, 6 uM YSA results are on record in publication PMC4950921.

Assay [1] deals with EphA2 L223R/L254R/V255R mutant (UniProt P29317).
The target is the same in assay [2]. This is another data set of the same source.

UniProt P29317, sequence (P29317 24-976 L223R/L254R/V255R): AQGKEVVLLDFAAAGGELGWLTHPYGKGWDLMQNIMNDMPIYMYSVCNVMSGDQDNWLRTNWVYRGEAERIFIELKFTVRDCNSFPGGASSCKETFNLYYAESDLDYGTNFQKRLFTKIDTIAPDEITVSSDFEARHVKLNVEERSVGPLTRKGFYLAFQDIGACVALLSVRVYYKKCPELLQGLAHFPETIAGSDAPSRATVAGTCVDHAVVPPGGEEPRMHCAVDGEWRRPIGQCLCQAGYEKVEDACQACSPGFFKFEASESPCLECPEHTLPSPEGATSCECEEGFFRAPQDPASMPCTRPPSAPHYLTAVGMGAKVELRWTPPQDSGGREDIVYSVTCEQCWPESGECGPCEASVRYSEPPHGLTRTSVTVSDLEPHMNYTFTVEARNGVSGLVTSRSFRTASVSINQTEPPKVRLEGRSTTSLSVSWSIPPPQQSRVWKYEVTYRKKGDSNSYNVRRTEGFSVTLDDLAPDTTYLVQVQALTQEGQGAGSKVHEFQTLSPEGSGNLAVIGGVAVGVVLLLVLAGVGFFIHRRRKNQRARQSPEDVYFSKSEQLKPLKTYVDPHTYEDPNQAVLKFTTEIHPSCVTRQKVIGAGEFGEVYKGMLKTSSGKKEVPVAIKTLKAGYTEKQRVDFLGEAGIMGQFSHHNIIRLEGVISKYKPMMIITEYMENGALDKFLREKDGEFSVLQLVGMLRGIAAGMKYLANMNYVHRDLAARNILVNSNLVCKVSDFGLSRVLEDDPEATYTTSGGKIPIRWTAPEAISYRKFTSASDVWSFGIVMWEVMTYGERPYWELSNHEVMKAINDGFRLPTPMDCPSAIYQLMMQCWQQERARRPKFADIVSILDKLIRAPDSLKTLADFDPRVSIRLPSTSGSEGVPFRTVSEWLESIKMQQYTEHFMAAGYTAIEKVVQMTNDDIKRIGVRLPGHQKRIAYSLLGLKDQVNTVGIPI

B1: YSA peptide with the GSGSK linker (peptide)
peptide: YSAYPDSVPMMSGSGSK
For the molecule B1, the decrease of EphA2 Ser897 phosphorylation, Western blot, HEK293T, 6 uM YSA in assay [1] was 35%. In assay [2], this molecule returned a suppression of migration of transfected HEK293T cells, transwell assay, 6 uM YSA of 25%.
